The text below walks through data of paper PMC9926490, “Structural Basis for Cyclosporin Isoform-Specific Inhibition of Cyclophilins from Toxoplasma gondii” (ACS Infectious Diseases, 2023).

The test system of data set [1] is C[C@H](NC(=O)CCC(=O)O)C(=O)N[C@@H](C)C(=O)N1CCC[C@H]1C(=O)N[C@@H](Cc1ccccc1)C(=O)Nc1ccc([N+](=O)[O-])cc1. The data set can be described thus: purified protein, by the assay type. The conditions noted are these: other: substrate AAPF, 0 °C, pH 8.0.
Another data set has as its target cyclosporin A (CsA). The data set can be described thus: ITC. Background: In ITC the heat of successive injections is recorded.
For data set [2], the system named is C[C@H](NC(=O)CCC(=O)O)C(=O)N[C@@H](C)C(=O)N1CCC[C@H]1C(=O)N[C@@H](Cc1ccccc1)C(=O)Nc1ccc([N+](=O)[O-])cc1. The data set can be described thus: purified protein, by the assay type. It counts as biochemical, Toxoplasma gondii. Particulars: other: substrate AAPF, 0 °C, pH 8.0.
Method: A trans-isomer is formed by Cyp, which is selectively cleaved by chymotrypsin, producing 4-nitroaniline, a yellow-colored product that can be measured spectrophotometrically.
The assay was performed in 50 mM Hepes, pH 8, and 100 mM NaCl at 0 °C. […] Once the temperature reached 0 °C, chymotrypsin solution, dissolved in HCl 1 mM, was added at 1.8 mg mL^–1 to start the reaction.
Successively, Cyp was added in large excess to enhance the cis-to-trans isomerization. The cis population was estimated by the difference between the final and the initial absorbance.
For all of the experiments, the slope of the catalyzed reaction was corrected for the spontaneous thermal cis–trans isomerization in the presence of the only chymotrypsin.
All measurements were repeated as triplicate, and the error was calculated as the mean standard error of the three measurements. The error associated with the parameter kcat/Km was propagated in agreement with the following equation eq 1 [drawing 1]
The target in data set [3] is human cyclophilin A (CypA) (human) (UniProt P62937).
human cyclophilin A (CypA) (human), sequence (P62937 whole entry): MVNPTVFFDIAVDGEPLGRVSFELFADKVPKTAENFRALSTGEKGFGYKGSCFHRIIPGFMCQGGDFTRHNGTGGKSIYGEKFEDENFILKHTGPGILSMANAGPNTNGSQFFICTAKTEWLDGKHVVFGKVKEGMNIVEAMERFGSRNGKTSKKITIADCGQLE

In general, Km refers to the concentration of substrate that gives half-maximal velocity. For orientation: kcat means the number of substrate molecules converted per active site and unit of time at saturation. As usually defined, the kcat/Km is the second-order rate constant that governs catalysis at low substrate concentration. CypA (Homo sapiens): in data set [1], the Km is 661 ± 93 µM, the turnover number (kcat) amounted to 3290 s⁻¹ and the kcat/Km was determined as 4.9e+06 M⁻¹ s⁻¹.
One may read the stoichiometry N as the number of molecules, sites or subunits per partner or assembly. Substance “TgCyp18.4 (TgCyp289250), cyclophilin from Toxoplasma gondii (enzyme)” registered a stoichiometry N in the data set with cyclosporin A (CsA) of 1.
“TgCyp23 (TgCyp285760), cyclophilin from Toxoplasma gondii (enzyme)” had a stoichiometry N with cyclosporin A (CsA) of 1.
In the case of TgCyp23 (Toxoplasma gondii VEG), in data set [2], the Michaelis-Menten constant (Km) was found to be 530 ± 97 µM, the kcat turned out to be 2010 ± 381 s⁻¹ and the kcat/Km was found to be 3.8e+06 ± 200000 M⁻¹ s⁻¹.
Take cyclosporin A (CsA) (peptide): the IC50 of CsA on PPIase activity (7 nM enzyme, AAPF substrate, chymotrypsin-coupled assay, 0-30 nM CsA) in data set [3] was 1 nM.
